Results taken from the NTF2 design screens of Basanta et al. (2020).

Experiment: protease stability score; higher = more stable; yeast display proteolysis, trypsin and chymotrypsin;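 note: relative to predicted unfolded state with 0 unfolded-like and 1 meaning tenfold more protease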

Row | Sequence | protease stability score
1 | DEKEEEYHRILREWMHWLLTGDWDKLLNNVDPHAKLTVNGREIHGMHLAVKLLVDTMRELRFHIEVKDTKVFNGVAFVDLRLHIHIGDKEHKNRSEVTLVIIDGRIHTIVIHDR | 1.56
2 | DEKEEEYKEMIRIMVEYLETGNEEDMNRLLDPHTKTEYHQGDKSDEFHGREEFMRLWQELGIDHFRVRDVDIVDGRVRIESELIVGDKRFNSYFFLIVVNGRATSASIHVE | 2.27
3 | DEKEEFMKKLSKLFVELWITGNEEIFNKLMDPNTRSDVNGVENIGRDEIIRFWKEWRRRFGIKHIEVEHVHAIGDKIEIHGIQKAENHHTEIHIRVNVVDGRIREVEVRTH | 2.26
4 | DEKEEFTRRFAQILIELWKTGDEEDMNNNMDPDVQNHSEFNGREVHLIGMELYVEHSEQWLNRVKNARIIWRHVDAQGDKILIHGDLIVNGKRIHVELDFYIVNGRIKSITIHER | 2.02
5 | DEKEEHFTTMMEIWLEIFRTGDWERLEKLMDPNVRHREVVDGRHLHLHGMENVSRLLHERENKLGANHIDLTHADIVNGRASIEGRVNYGDKRHKIRFDIHIVNGRVQHIQDIKI | -0.034
6 | DEKEEHLDELARLFWEVHHTGNEEVFEELFDPRMRLIFNGQQYIGMEKAVKIESRVKNITVRLETYRVINGRIEIHENWRQGEKEIKFEIRIVVIDGVAKEMERIFREK | 1.09
7 | DEKEEHSKELVRLILRLILTGDEEILEDLMDPNVRANIDGREVHGWHEFVRILEKFLKEWRIHTTSLKRIRIIGDKAEVDLHEVGIVNGKKLEQDFHIHIEFVNGRLKEVHIEIR | 1.69
8 | DEKEEILRQIMELMLRLLLTGDEDRLTELIDPNVRVVFEGRTYHGMDEVTELWKEIRIDSFRFRDVKNVGDKARLHGEQKVRVGNYSHEHKSEYQLFVVNGRAKSLEIRWH | 1.31
9 | DEKEEILVDLFKHFLEAMLTGDEEQVNRLVDPNARHDIDGVEHHGWEFLEWFLSRVDHIELLEVKRVRNIDGRIEADLHIDITVNGKKERHDVEVHIVIIDGVFHSIKVIKH | 2.23
10 | DEKEELSKRAFERMLHWLETGDFDKFERYADPNVKTVIGDKYFIGRERVSRTVLHWLEVLGVDHRHVEDSDVHTFENHAVMDLHTRVHVDGQDREIRFILLVTKVNGRWNVTSIKIEIR | 0.661
11 | DEKEELTRKLLELLLLAWSTGDEEVLMMLADPDVRITQGDKITHGRDELRREIEEIWRKFGADHIEVEPEDSRVQGDKVNNRTTLWLRINGRTIDFNVHVIIVIVNGVIHSMRFEIR | 2.35
12 | DEKEELVEYFWEVFLKSLRTGNWHEFVKMFDPDAKSHINGVHSIGRDHIATLILREHEEIRYTEIRERHIEVQGDKIHVHTEVDMFVGDKRIRTERHIHITIVNGRIKSMRVEIR | 0.958
13 | DEKEETIERLIRMLWHAWRTGDEDSLRNLFDPHAKLHVDGRDLVGMEMVYEDFHRQLNEWRINDLVIRTFRVQGDKIEIKGEIFGDINGRHTRHEVIIHIVVVDGRIKSLEVIND | 1.66
14 | DEKEEVLEKLDRLVMEAMETGDWELITKNFDPNTRITINGRELIGRAEWHRFLEEMRHSIKDYRIRSKREYDGRIEVDTESHFIVNIDGKRIEYETRTHVIMTKIDGKWLFTSVEVR | 1.97
15 | DEKEHELTRMIRMIETLLRTGDFEELEKLMDPDVRLDIDGKHLVGRHDLREFFLELGVKHTDTKEIHVIGDKAFLHTEIHVDGRTTKVIIIMHKINGRWIITSTHIRHH | 1.47
16 | DEKEHFAKWFIHVLIRHWYTGDEETTHRLADPNARYEIGDKELIGMDELFRHLEQLRVDSIDYRVEDIRFQGEKIHIHGKIRVEGVVNGQHFHLTFDLILHVEKINGRWHFREMQTR | 1.25
17 | DEKEHLLKLAIDILKHLHETGDETLAEELADPNTRVHYGDKHIHGRQRYIEHLHRERRRLGVDHSQIELHNWEVVDGRLHLDGKLTLLVGDKRIEFKVRIIMDKVNGRWILHSLEFH | 0.608
18 | DEKEKDFHHMLEDWRWATRTGDEDTLKDLMDPNAKVRYGDYEFHGREHVIQFYQQIRFHEIHVHHVRVIGNKLEADTRVRIEYNGRELSFETHLVLLKIDGKWVMKIHEID | 2.13

Row | Sequence | protease stability score
19 | DEKEKEFKEVWKRILEILLTGDEEELTRMADPHARLDVNGVERHGREEMSKYIRHWHEKVKNARFWIHSIHVVGEKVVIDTEIQIGDKRIRYIVHFIVVDGRIKEIHVHEEII | 2.12
20 | DEKEKESEDLAEIILKLWATGDEEIFEHLLDPNVWMIDEDEVFHGMEKVSEFLLRLREKLGVDHFRVHHIEIQGDKVHMDIRLEVNGKILKTHIRVIIINGRIHTVEIRIH | 2.37
21 | DEKEKIVHEMFKLWVDLLLTGDEEILRRMLDPNTRLDFNGVDVIGMERIADHLRHWRFHDIRIEHMRVYNGRVEVETRLDGYWDGRRIRTTSHILLVVVGDKIKEIHIKID | 2.38
22 | DEKEKLKQLARKFHKAMQTGDEDELKKNVDENVRADYGDRRYHGSEELAKWLREMKTKVDHLSMTIKDIRVKGDRAEIELEMTFDHNGRQETRQFTLQAQVHNGSLKIVQIRQS | 1.47
23 | DEKEKVVRIAQEIINTIIHTGDERILEEFIDPNVRFYFNGQEFHGRELMSEIEKKHRDRFKNLRIFVEDTHVEVYGEWLRIKVHLRLEIGDKRHELHLDIIALKVNGRWLNKSAELRVE | 1.64
24 | DEKERESEEFIRRFISVYETGDWKTMFELADPHTRMIDIVNGRDIEIIGREAIRHIFEERMRLLGIKHFHIDHSSRQGNKYHQKVTIRVDGQEIEAHVHVIVVDGVLKQIEVRSK | 1.06
25 | DEKERKLLEIARLLIESFLTGDWKTFHEMLDPHVRFEVGDKEAHGWEEALRVWDHLKEEMRITDLDIHHYTVQGDKVHIDSRLHGEIDGKRVTFRTRIVVIVVNGRVKQVSYKIT | 1.23
26 | DEKERLADEILEDIRKSVHTGDWDEYLRLLDPNVRTVINGKTVHGREEIKELMERLGIDHHHLRVDHWEIIDGKVHVEIEVTLQIGDKHFSRSSHILIMKFNGQWIVHTFRLH | 1.73
27 | DEKERLAHEFHERFLEALMTGDEHHIEEMFDPNARTRQGDKTFHGRERSLHLISEWWRQIDVVRDIHIHEIKFQGDFLSFHLMIDGEINGRRDELVVHVESRKIDGKWFLHSVTYT | 0.497
28 | DEKHEFARRYYELEKKYLKTGDEEEWLKYVDPHVRVHVGDKDLVGMELAEEQWREIRYHHIDDKDMRIQGDKLHVKGRVDGTIGDKRHRVDMEVHIEIIDGRFKRIEVRIK | 0.76
29 | DEKHEFVRRRIEEWLEALRTGDEDTLHRLADPNVKMNINGVERHGRESMLSLFEEFGVNHFHIRDVKIQGEKSFIDGEIRYGDKIHRVQMEIQVIDGVLESHKLRVH | 1.13
30 | DEKHEIMREALKEFITEQRTGNEDRIKQLMDPNVRIFVGDKEFHGREEVMRILKILRHELGVDNIFIILRSMHIVDGRVHLDVELHINGRIFKSELVILKIDGQWLIRSIHIE | 1.66
31 | DEKHELNEKALSEFLKIVHTGDERLVREMMDPHVRVHINGRDHHGMDDAVELMKFIKNMTVILTDKKIQGDKLEVHGIWIYNGVREETEIISEKVDGRWVIREVRHD | 1.07
32 | DEKHELTKRLVELFLHAMHTGNEDLLHEYMDPNVKLVVNGQEHHGRELANSVIRRMIEELRLKDSKIKDIEFQGEKVHLDVHLHFRQGDKHITLDARIILLKVDGRWVIESLIFH | 1.76
33 | DEKKAKEAAHRLLEAMVTGDPRKLNENADEDVQVEYGDKSYTGREKLNEWAHEFQKRVDHVRIESIHQRGDTATVKVRVEHNGETDTFVLIVEAHNGRAKRIRQETR | 1.1
34 | DEKKEDIDRMVKEIHTIFATGDEDRFKELLDPNVRVDVDGKKRHGREDATEHFRKWVLTLGIDHSRVHSVHTIDGVVFLEIRFDVNGQTIKVRVLAVKVDGQWLIEEVEIRWK | 2.38
35 | DEKNHLWDEISEIFVQNWVTGDEDSLRHMADPNVRTDINGVELHGMEETNRFIIEELKHARSRVHLEHRDAVNGRIHLQTELYSNVDGQEIRYKTRIILIVVNGRLKEIKFIQH | 0.581
36 | DEKQDLWRHLLEQFFRWYQTGDEDLLFKYADPHVRFRQGDKEHHGREEMIRMLREHRHHFGADHFKVETMEIQGDKATFVMHDHVNGVDIEIRVHVVVIDGRIRSFKFERH | 1.34
